Target: phosphorylated extracellular regulated kinase 2 (pERK2) (UniProt P28482 1-360, phosphorylated (sites not given))
Assay: SPR

Chain of phosphorylated extracellular regulated kinase 2 (pERK2) (P28482 whole entry): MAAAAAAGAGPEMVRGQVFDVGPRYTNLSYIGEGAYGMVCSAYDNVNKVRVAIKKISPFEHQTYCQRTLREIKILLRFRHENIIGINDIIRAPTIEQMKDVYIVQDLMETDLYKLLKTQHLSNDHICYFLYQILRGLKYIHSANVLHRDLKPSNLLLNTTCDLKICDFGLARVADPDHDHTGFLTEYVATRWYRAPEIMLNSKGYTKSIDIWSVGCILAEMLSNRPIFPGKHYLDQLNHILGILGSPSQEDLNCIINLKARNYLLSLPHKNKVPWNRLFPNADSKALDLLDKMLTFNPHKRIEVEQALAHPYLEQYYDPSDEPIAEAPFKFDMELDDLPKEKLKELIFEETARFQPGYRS

Kd: 190 nM
B1: synthetic DARPin pE59 (designed binder)
chain: GGGGGSDLGKKLLEAARAGQDDEVRILXANGADVNALDEDGLTPLHLAAQLGHLEIVEVLLKYGADVNAEDNFGITPLHLAAIRGHLEIVEVLLKHGADVNAQDKFGKTAFDISIDNGNEDLAEILQKLN
modifications: norleucine (Nle) at 28 in place of Met; C-terminal carboxamide (CONH2) at 130Asn
